In PMC5123574, “Redox cofactors insertion in prokaryotic molybdoenzymes occurs via a conserved folding mechanism” (Scientific Reports, 2016):
Changes are numbered by the printed parent chain. In names and notes the source's numbering stands.

Molecular target: the molecule itself
Test: SAXS; SEC-coupled SAXS (SWING beamline, SOLEIL); ~25 mg/mL in Tris-HCl 40 mM pH 7.6, 8% glycerol, online Agilent BioSEC-3 300 Å column; Mw from SAXSMoW, volume from DAMMIF; NarGH heterodimers into a trimer

B1: holoNarGH, Moco-loaded soluble catalytic NarGH complex of nitrate reductase A (complex, E. coli)
chain 1: MSKFLDRFRYFKQKGETFADGHGQLLNTNRDWEDGYRQRWQHDKIVRSTHGVNCTGSCSWKIYVKNGLVTWETQQTDYPRTRPDLPNHEPRGCPRGASYSWYLYSANRLKYPMMRKRLMKMWREAKALHSDPVEAWASIIEDADKAKSFKQARGRGGFVRSSWQEVNELIAASNVYTIKNYGPDRVAGFSPIPAMSMVSYASGARYLSLIGGTCLSFYDWYCDLPPASPQTWGEQTDVPESADWYNSSYIIAWGSNVPQTRTPDAHFFTEVRYKGTKTVAVTPDYAEIAKLCDLWLAPKQGTDAAMALAMGHVMLREFHLDNPSQYFTDYVRRYTDMPMLVMLEERDGYYAAGRMLRAADLVDALGQENNPEWKTVAFNTNGEMVAPNGSIGFRWGEKGKWNLEQRDGKTGEETELQLSLLGSQDEIAEVGFPYFGGDGTEHFNKVELENVLLHKLPVKRLQLADGSTALVTTVYDLTLANYGLERGLNDVNCATSYDDVKAYTPAWAEQITGVSRSQIIRIAREFADNADKTHGRSMIIVGAGLNHWYHLDMNYRGLINMLIFCGCVGQSGGGWAHYVGQEKLRPQTGWQPLAFALDWQRPARHMNSTSYFYNHSSQWRYETVTAEELLSPMADKSRYTGHLIDFNVRAERMGWLPSAPQLGTNPLTIAGEAEKAGMNPVDYTVKSLKEGSIRFAAEQPENGKNHPRNLFIWRSNLLGSSGKGHEFMLKYLLGTEHGIQGKDLGQQGGVKPEEVDWQDNGLEGKLDLVVTLDFRLSSTCLYSDIILPTATWYEKDDMNTSDMHPFIHPLSAAVDPAWEAKSDWEIYKAIAKKFSEVCVGHLGKETDIVTLPIQHDSAAELAQPLDVKDWKKGECDLIPGKTAPHIMVVERDYPATYERFTSIGPLMEKIGNGGKGIAWNTQSEMDLLRKLNYTKAEGPAKGQPMLNTAIDAAEMILTLAPETNGQVAVKAWAALSEFTGRDHTHLALNKEDEKIRFRDIQAQPRKIISSPTWSGLEDEHVSYNAGYTNVHELIPWRTLSGRQQLYQDHQWMRDFGESLLVYRPPIDTRSVKEVIGQKSNGNQEKALNFLTPHQKWGIHSTYSDNLLMLTLGRGGPVVWLSEADAKDLGIADNDWIEVFNSNGALTARAVVSQRVPAGMTMMYHAQERIVNLPGSEITQQRGGIHNSVTRITPKPTHMIGGYAHLAYGFNYYGTVGSNRDEFVVVRKMKNIDWLDGEGNDQVQESVK
chain 2: MKIRSQVGMVLNLDKCIGCHTCSVTCKNVWTSREGVEYAWFNNVETKPGQGFPTDWENQEKYKGGWIRKINGKLQPRMGNRAMLLGKIFANPHLPGIDDYYEPFDFDYQNLHTAPEGSKSQPIARPRSLITGERMAKIEKGPNWEDDLGGEFDKLAKDKNFDNIQKAMYSQFENTFMMYLPRLCEHCLNPACVATCPSGAIYKREEDGIVLIDQDKCRGWRMCITGCPYKKIYFNWKSGKSEKCIFCYPRIEAGQPTVCSETCVGRIRYLGVLLYDADAIERAASTENEKDLYQRQLDVFLDPNDPKVIEQAIKDGIPLSVIEAAQQSPVYKMAMEWKLALPLHPEYRTLPMVWYVPPLSPIQSAADAGELGSNGILPDVESLRIPVQYLANLLTAGDTKPVLRALKRMLAMRHYKRAETVDGKVDTRALEEVGLTEAQAQEMYRYLAIANYEDRFVVPSSHRELAREAFPEKNGCGFTFGDGCHGSDTKFNLFNSRRIDAIDVTSKTEPHP
notes: NarG, nitrate-reducing catalytic subunit of respiratory nitrate reductase A, E. coli; carries Mo-bisPGD and the [4Fe-4S] cluster FS0; Printed residue numbers (Arg108, Glu794) follow the crystal structure 1q16; NarH, electron-transfer subunit of respiratory nitrate reductase A, E. coli; carries four Fe/S clusters (FS1-4); The unit written here is the NarGH heterodimer (~200 kDa), which is trimeric …
stoichiometry N: 3

B2: NarG_(R108A)H_(His6) complex (complex, E. coli)
chain 1: B1 chain 1 with R108A
chain 2: B1 chain 2
notes: NarG, catalytic subunit of respiratory nitrate reductase A, E. coli, with R108A; NarH, electron-transfer subunit of respiratory nitrate reductase A, E. coli; The unit is the NarGH heterodimer; His6 put on NarH from the plasmid name; also called R108A NarGH; NarGH variant; source: E. coli with pNarG_(R108A)H_(His6)J, purified
binding result: binds

B3: apoNarGH, cofactor-less NarGH complex produced in absence of NarJ (complex, E. coli)
chain 1: B1 chain 1
chain 2: B1 chain 2
notes: NarG, nitrate-reducing catalytic subunit of respiratory nitrate reductase A, E. coli; here devoid of FS0 and Moco; Printed residue numbers follow the crystal structure 1q16; NarH, electron-transfer subunit of respiratory nitrate reductase A, E. coli; The unit is the NarGH heterodimer; His6 put on NarH from the plasmid name; also called Moco-less His-tagged NarGH complex
stoichiometry N: 3
